The Kd is the free concentration of one partner at which half of the binding sites on the other are occupied at equilibrium, for simple one-to-one binding. A lower Kd goes with higher affinity.

Drawing on paper PMC6695498, “Arkadia/RNF111 is a SUMO-targeted ubiquitin ligase with preference for substrates marked with SUMO1-capped SUMO2/3 chain” (Nature Communications, 2019), this text covers Kd for 2 molecules.

The target of this assay is T1, Arkadia SUMO-binding domain (residues 285-416), wild type (mouse, UniProt Q99ML9 285-416).
T1 construct: it holds SIM1, SOB and SIM2; Subcloned into pGEX-TEV/N (TEV site after the thrombin site); also called Arkadia-WT 285-416; SIM domain of Arkadia
T1 sequence (looked up): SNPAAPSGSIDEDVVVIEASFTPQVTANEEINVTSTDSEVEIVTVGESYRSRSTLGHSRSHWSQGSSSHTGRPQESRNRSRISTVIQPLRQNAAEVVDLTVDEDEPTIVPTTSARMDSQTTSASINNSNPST
Kind of assay: ITC; iTC200; ITC buffer (50 mM Tris/HCl pH 7.5, 150 mM NaCl, 2 mM DTT, 5% glycerol), 30 °C; 20-30 injections up to a twofold to threefold molar excess; which partner was in the syringe is not told; single titrations and their mean. The note with it: both partners purified. In general terms: Isothermal titration calorimetry measures the heat released or taken up as one component is titrated into another.

“And” between values parts separate entries of the source, which are not always exact repeats. Equal entries are not always repeated.

B1: linear SUMO1-capped SUMO2 dimer (SUMO1-ΔN15 - SUMO2-ΔN11) (other)
chain: KKEGEYIKLKVIGQDSSEIHFKVKMTTHLKKLKESYCQRQGVPMNSLRFLFEGQRIADNHTPKELGMEEEDVIEVYQEQTRSTENNDHINLKVAGQDGSVVQFKIKRHTPLSKLMKAYCERQGLSMRQIRFRFDGQPINETDTPAQLEMEDEDTIDVFQQQTGG
For the molecule B1, the Kd is 1.4 µM and 3.8 µM and 2.1 µM.

B2: linear SUMO1-capped SUMO2 trimer (SUMO1-ΔN15 - 2xSUMO2-ΔN11) (other)
chain: KKEGEYIKLKVIGQDSSEIHFKVKMTTHLKKLKESYCQRQGVPMNSLRFLFEGQRIADNHTPKELGMEEEDVIEVYQEQTRSTENNDHINLKVAGQDGSVVQFKIKRHTPLSKLMKAYCERQGLSMRQIRFRFDGQPINETDTPAQLEMEDEDTIDVFQQQTRSTENNDHINLKVAGQDGSVVQFKIKRHTPLSKLMKAYCERQGLSMRQIRFRFDGQPINETDTPAQLEMEDEDTIDVFQQQTGG
For the molecule B2, the dissociation constant (Kd) is 3.5 µM and 2.1 µM and 2.3 µM and 1.5 µM.
